Results taken from patent publication US20110124576A1 (NOVOZYMES A S, published 2011).
Residue numbers refer to the chain shown, from its start. In names and notes the source's numbering stands. Blank lines part the entries; values can stand above or below the binder they belong to.

Assays:
[1] = biological target: T1, transferrin receptor on human erythroleukemic K562 cells (human, UniProt P02786 1-760); experiment: specific 55Fe uptake from labelled diferric transferrin into K562 cells, 25 min at 37 C, 12.5-2000 nM; unspecific uptake (hundredfold unlabelled transferrin) subtracted; mean ± S.E.M. of three experiments
T1 construct: whole, on cells; also called TfR
Description: Iron uptake from labelled diferric transferrins was performed as follows. K562 erythroleukemic cells, cultured in RPMI cell culture medium under standard conditions (bicarbonate-buffered, 5% CO₂, antibiotics, 10% foetal calf serum) were washed with serum-free medium containing HEPES-buffer and 1 mg/ml of bovine serum albumin and used at a concentration of 10 million cells/ml in this medium.
The reaction was started by the addition of 50 μl of cell suspension.
After 25 min at 37° C. the reaction was stopped by immersion into an ice-bath, three aliquots of 30 μL of cell suspension were transferred to new tubes and the cells were centrifuged in the cold and again after addition of an oil layer of diethylphtalate/dibutylphthalate. The supernatant was removed, the cell pellet transferred into a counter vial and lysed with 0.5 M KOH+1% Triton X-100. The lysates were neutralized with 1M HCl after overnight lysis, mixed with Readysolv scintillation cocktail and counted in the Packard Liquid Scintillation Counter.

[2] = biological target: T1, transferrin receptor on human …; experiment: cell-based or functional assay
[3] = biological target: T1, transferrin receptor on human …; experiment: cell-based or functional assay; remark: listed apart in the source

T1 sequence (P02786 whole entry): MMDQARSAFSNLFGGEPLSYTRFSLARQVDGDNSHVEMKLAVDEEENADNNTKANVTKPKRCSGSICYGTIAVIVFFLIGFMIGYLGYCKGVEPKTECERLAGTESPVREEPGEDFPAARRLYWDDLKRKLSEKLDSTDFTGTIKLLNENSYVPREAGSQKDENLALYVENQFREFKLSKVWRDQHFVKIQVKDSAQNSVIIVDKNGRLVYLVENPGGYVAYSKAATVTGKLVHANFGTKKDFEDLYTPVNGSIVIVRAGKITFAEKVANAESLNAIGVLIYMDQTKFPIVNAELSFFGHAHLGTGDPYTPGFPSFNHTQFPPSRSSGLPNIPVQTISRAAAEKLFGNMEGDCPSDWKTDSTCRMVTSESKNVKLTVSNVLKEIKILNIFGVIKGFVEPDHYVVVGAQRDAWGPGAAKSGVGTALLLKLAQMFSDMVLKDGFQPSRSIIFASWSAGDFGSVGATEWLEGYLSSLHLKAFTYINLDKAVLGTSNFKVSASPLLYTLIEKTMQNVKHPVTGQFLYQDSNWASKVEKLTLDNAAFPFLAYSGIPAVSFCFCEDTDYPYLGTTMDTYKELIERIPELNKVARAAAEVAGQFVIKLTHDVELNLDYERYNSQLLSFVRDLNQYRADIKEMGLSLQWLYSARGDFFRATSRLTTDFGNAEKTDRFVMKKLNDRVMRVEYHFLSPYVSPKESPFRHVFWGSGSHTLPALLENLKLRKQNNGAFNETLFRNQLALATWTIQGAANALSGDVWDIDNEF

B1: recombinant human transferrin (S415A, T613A) (ligand)
chain: VPDKTVRWCAVSEHEATKCQSFRDHMKSVIPSDGPSVACVKKASYLDCIRAIAANEADAVTLDAGLVYDAYLAPNNLKPVVAEFYGSKEDPQTFYYAVAVVKKDSGFQMNQLRGKKSCHTGLGRSAGWNIPIGLLYCDLPEPRKPLEKAVANFFSGSCAPCADGTDFPQLCQLCPGCGCSTLNQYFGYSGAFKCLKDGAGDVAFVKHSTIFENLANKADRDQYELLCLDNTRKPVDEYKDCHLAQVPSHTVVARSMGGKEDLIWELLNQAQEHFGKDKSKEFQLFSSPHGKDLLFKDSAHGFLKVPPRMDAKMYLGYEYVTAIRNLREGTCPEAPTDECKPVKWCALSHHERLKCDEWSVNSVGKIECVSAETTEDCIAKIMNGEADAMSLDGGFVYIAGKCGLVPVLAENYNKADNCEDTPEAGYFAVAVVKKSASDLTWDNLKGKKSCHTAVGRTAGWNIPMGLLYNKINHCRFDEFFSEGCAPGSKKDSSLCKLCMGSGLNLCEPNNKEGYYGYTGAFRCLVEKGDVAFVKHQTVPQNTGGKNPDPWAKNLNEKDYELLCLDGTRKPVEEYANCHLARAPNHAVVTRKDKEACVHKILRQQQHLFGSNVADCSGNFCLFRSETKDLLFRDDTVCLAKLHDRNTYEKYLGEEYVKAVGNLRKCSTSSLLEACTFRRP
notes: Secreted from S. cerevisiae; 55Fe-loaded (diferric) in the K562 assay; also called Deltaferrin; rTf
Kd [1]: 130 nM
Specific iron uptake Bmax [2]: 2830 fmol 55Fe/10^6 cells x 25 min

B3: fluorescein conjugated thiotransferrin (S415C, T613A) (ligand)
chain: B1 chain with A415C
modifications: fluorescein-5-maleimide conjugated to the free thiol of Cys 415
notes: Iron-loaded in SPR, 55Fe-loaded in the K562 assay; also called Fluorescein conjugated recombinant thiotransferrin (S415C, T613A)
Kd [1]: 189 nM
specific iron uptake into K562 cells [3]: > 5 % of the level for the transferrin (S415A, T613A) control
Specific iron uptake Bmax [2]: 3250 fmol 55Fe/10^6 cells x 25 min

B5: fluorescein conjugated thiotransferrin (S28C, S415A, T613A) (ligand)
chain: B1 chain with S28C
modifications: fluorescein-5-maleimide conjugated to the free thiol of Cys 28
notes: Iron-loaded in SPR, 55Fe-loaded in the K562 assay; also called Fluorescein conjugated recombinant thiotransferrin (S28C, S415A, T613A)
Kd [1]: 154 nM
specific iron uptake into K562 cells [3]: > 5 % of the level for the transferrin (S415A, T613A) control
Specific iron uptake Bmax [2]: 2430 fmol 55Fe/10^6 cells x 25 min

The next lines start with the values.

Kd [1]: 209 nM
specific iron uptake into K562 cells [3]: > 5 % of the level for the transferrin (S415A, T613A) control
Specific iron uptake Bmax [2]: 3020 fmol 55Fe/10^6 cells x 25 min
B2: recombinant thiotransferrin (S28C, S415A, T613A) (ligand)
chain: B1 chain with S28C
modifications: free thiol at Cys 28
notes: Iron-loaded in SPR, 55Fe-loaded in the K562 assay; also called from Strain 1 [pDB3767]

Kd [1]: 203 nM
specific iron uptake into K562 cells [3]: > 5 % of the level for the transferrin (S415A, T613A) control
Specific iron uptake Bmax [2]: 2360 fmol 55Fe/10^6 cells x 25 min
B4: recombinant thiotransferrin (S415C, T613A) (ligand)
chain: B1 chain with A415C
modifications: free thiol at Cys 415
notes: Iron-loaded in SPR, 55Fe-loaded in the K562 assay; also called from Strain 1 [pDB3773]
